test: soluble on expression in E. coli; label from the status in PepcDB or PDB records

Sequence | soluble on expression in E. coli
MGSDKIHHHHHHSQRQMDIIGNNLANSSTLGYKSADTQFANMLSQSLTSGSGSFQVGQGVAISSVNTKFDQGSFESTGSVTDMAIDGEGFFPVKDKEGAIYYTRAGAFVIDKDGYLVDVNGYRVQGINLFSAPGDAELTDICLKNIQSAPSATKTFGIGVNLNDSEDAGTSFVVSQNVFDSKGAIHNLSLTFTKTEGDGYWGCQAKLDNVETINSSCCGIKFDESGNLKNTYLTSCSAGAVSGGGAITSTTVNKPGQLYLNGTIACTRGADADTWTISSSEYPNLEFSLGDLGNDDEIAIDLDGKGGTDITLALGAGFADLSSFDLTISQVESNAADVTFEFPGLANGADIGSGNALTWNLIGDDALQVTGYAATSVIKALEVDGYTSGVLKSLSVEKDGIISGIFTNGQTSDLGQVVLANFPNVGALRKIGSYFAETNFSGAAIINSPGTGGLGEIMSNSLEQSNTDVSMEFVNMINAQRAYQASARIITTSDEMLTELMNIKR | not soluble
LPAMEIECRITGTLNGVEFELVGGGEGTPEQGRMTNKMKSTKGALTFSPYLLSHVMGYGFYHFGTYPSGYENPFLHAINNGGYTNTRIEKYEDGGVLHVSFSYRYEAGRVIGDFKVMGTGFPEDSVIFTDKIIRSNATVEHLHPMGDNDLDGSFTRTFSLRDGGYYSSVVDSHMHFKSAIHPSILQNGGPMFAFRRVEEDHSNTELGIVEYQHAFKTPD | soluble
MKRIITLTVVNRSGVLNRITGLFTKRHYNIESITVGHTETAGVSRITFVVHVEGENDVEQLTKQLNKQIDVLKVTDITNQSIVQRELALIKVVSAPSTRTEINGIIEPFRASVVDVSRDSIVVQVTGESNKIEALIELLKPYGIKEIARTGTTAFARGTSKRRHPIKQYLLYKTLEHHHHHH | soluble
AHHHHHHGSIDAHAHIEFFKKNQEEIIEEAKRKLRGVVDSITEYRKTHVWKSWELLKDYFDFIFPTLGYHPNEARRGNWEKVRKVEDFILKHQKEIFGIGEIGLDYYHAKTKAERDAQREIFVHFLELAKELNLPVVIHAREAEKEALEIINRYDIPSYFHSYTGSVEVAREIVDGGHILGISTGIVFIPEVREVAKNIEIEYLVVETDAPYMSPYKGIRNKPIFVEVAIEELAKIKGMDKTEVEAVTEVNTIKFFSLPL | soluble
MSLATKDPTAVERANLLNMAKLSIKGLIESALSFGRTLDSDYPPLQQFFVVMEHCLKHGLKGRKSFLSYNKTIWGPLELVEKLYPEAEEIGASVRDLPGLKTPLGRARAWLRLALMQKKMADYLRCLIIQRELLSEFYEYHALMMEEEGAVIVGLLVGLNVIDANLCVKGEDLDSQVGVIDFSMYLKNEEEIGNKERNVQIAAILDQKNYVEELNRQLNSTVSSLHSRVDSLEKSNTKLIEELAIAKNNIIKLQEENHQLRSENELILMRTRQHLEVTKVDVETELQTYKHSRQGLDEMYNDARRQLRDESQLRQDVENELSVQVGMKHEMELAMKLLEKDIHEKQDTLIGLRQQLEEVKAINIEMYQRLQGSEDGLKEKNEIIARLEEKTNKITTAMRQLEQRLQQAEKAQKEAEAEDEKYAQECLSQSDSLQRQISQKEQQLVQLETDLKIEKEWRQTLQEDLQKEKDVLSHLRHETQKVISLKKEFLNLQDENQQLKRIYQEQEQALQELGSKLCESKLKIDDIKEANKALQGLVWLKDKDATHCKLCEKEFSLSKRKHHCRNCGEIFCNACSDNELPLPSSPKPVRVCDSCHAMLIQRCSSNMPEGHHHHHH | not soluble
MAHTPTMLAAAAPFMPEATGVDPALDALLAGLQAHPARIDPKYLYDALGSSLFAAITQLPEYYPTRCEAEIFATHLEAIARHTGPVRTLIDLGAGDCAKAERLLPCLRPQRYVPIDISTDFLGQAVARVRRAHPWLDVLPLGRDLNAGLDLPEAIDAQGRLFFYPGSSIGNLDPDAALALLASLRAQAGVSGGLLIGVDRVKARAIVEPAYDDALHLTGAFNLNLLRHVNSVLGSDFDVRDWTHVALYNEPRSRMEMHLQARSDIRVRWPGGQRRFQADERIHTENSYKYTIERFVDLLRRAGYGDIRYWSDARDWFSVFSARA | soluble
MGSDKIHHHHHHMAEQMRRVARLFGDWPETIIWTCLEGTMGDIYVDDSQSPQSALALYGRQSFFGFLAGQPHRDLLKICEGKNIILVPQNQAWSDLIEEVYGDGVRFFTRYATKKDTEFDLGHLQKLVDDLPESFDMKLIDRNLYETCLVEEWSRDLVGNYIDVEQFLDLGLGCVILHKGQVVSGASSYASYSAGIEIEVDTREDYRGLGLAKACAAQLILACLDRGLYPSWDAHTLTSLKLAEKLGYELDKAYQAYEWR | not soluble

From the DeepSol protein solubility set
